Measured values reported in patent US20090029467A1.
Where two headings read alike, the source gives them in different places.

Key:
Experiment in all cases: cell-based or functional assay
[1] = molecular target: cation-independent mannose-6-phosphate/IGF-II receptor on GM4668 human skin fibroblasts (human) (UniProt P11717)
[2] = molecular target: cation-independent mannose-6-phosphate/IGF-II receptor on GM4668 human skin fibroblasts (human) (UniProt P11717); remark: listed apart in the source
[3] = molecular target: cation-independent mannose-6-phosphate/IGF-II receptor on GM4668 human skin fibroblasts (human) (UniProt P11717); remark: listed apart in the source
[4] = molecular target: cation-independent mannose-6-phosphate/IGF-II receptor on GM4668 human skin fibroblasts (human) (UniProt P11717); remark: listed apart in the source

UniProt P11717, sequence (P11717 41-2491): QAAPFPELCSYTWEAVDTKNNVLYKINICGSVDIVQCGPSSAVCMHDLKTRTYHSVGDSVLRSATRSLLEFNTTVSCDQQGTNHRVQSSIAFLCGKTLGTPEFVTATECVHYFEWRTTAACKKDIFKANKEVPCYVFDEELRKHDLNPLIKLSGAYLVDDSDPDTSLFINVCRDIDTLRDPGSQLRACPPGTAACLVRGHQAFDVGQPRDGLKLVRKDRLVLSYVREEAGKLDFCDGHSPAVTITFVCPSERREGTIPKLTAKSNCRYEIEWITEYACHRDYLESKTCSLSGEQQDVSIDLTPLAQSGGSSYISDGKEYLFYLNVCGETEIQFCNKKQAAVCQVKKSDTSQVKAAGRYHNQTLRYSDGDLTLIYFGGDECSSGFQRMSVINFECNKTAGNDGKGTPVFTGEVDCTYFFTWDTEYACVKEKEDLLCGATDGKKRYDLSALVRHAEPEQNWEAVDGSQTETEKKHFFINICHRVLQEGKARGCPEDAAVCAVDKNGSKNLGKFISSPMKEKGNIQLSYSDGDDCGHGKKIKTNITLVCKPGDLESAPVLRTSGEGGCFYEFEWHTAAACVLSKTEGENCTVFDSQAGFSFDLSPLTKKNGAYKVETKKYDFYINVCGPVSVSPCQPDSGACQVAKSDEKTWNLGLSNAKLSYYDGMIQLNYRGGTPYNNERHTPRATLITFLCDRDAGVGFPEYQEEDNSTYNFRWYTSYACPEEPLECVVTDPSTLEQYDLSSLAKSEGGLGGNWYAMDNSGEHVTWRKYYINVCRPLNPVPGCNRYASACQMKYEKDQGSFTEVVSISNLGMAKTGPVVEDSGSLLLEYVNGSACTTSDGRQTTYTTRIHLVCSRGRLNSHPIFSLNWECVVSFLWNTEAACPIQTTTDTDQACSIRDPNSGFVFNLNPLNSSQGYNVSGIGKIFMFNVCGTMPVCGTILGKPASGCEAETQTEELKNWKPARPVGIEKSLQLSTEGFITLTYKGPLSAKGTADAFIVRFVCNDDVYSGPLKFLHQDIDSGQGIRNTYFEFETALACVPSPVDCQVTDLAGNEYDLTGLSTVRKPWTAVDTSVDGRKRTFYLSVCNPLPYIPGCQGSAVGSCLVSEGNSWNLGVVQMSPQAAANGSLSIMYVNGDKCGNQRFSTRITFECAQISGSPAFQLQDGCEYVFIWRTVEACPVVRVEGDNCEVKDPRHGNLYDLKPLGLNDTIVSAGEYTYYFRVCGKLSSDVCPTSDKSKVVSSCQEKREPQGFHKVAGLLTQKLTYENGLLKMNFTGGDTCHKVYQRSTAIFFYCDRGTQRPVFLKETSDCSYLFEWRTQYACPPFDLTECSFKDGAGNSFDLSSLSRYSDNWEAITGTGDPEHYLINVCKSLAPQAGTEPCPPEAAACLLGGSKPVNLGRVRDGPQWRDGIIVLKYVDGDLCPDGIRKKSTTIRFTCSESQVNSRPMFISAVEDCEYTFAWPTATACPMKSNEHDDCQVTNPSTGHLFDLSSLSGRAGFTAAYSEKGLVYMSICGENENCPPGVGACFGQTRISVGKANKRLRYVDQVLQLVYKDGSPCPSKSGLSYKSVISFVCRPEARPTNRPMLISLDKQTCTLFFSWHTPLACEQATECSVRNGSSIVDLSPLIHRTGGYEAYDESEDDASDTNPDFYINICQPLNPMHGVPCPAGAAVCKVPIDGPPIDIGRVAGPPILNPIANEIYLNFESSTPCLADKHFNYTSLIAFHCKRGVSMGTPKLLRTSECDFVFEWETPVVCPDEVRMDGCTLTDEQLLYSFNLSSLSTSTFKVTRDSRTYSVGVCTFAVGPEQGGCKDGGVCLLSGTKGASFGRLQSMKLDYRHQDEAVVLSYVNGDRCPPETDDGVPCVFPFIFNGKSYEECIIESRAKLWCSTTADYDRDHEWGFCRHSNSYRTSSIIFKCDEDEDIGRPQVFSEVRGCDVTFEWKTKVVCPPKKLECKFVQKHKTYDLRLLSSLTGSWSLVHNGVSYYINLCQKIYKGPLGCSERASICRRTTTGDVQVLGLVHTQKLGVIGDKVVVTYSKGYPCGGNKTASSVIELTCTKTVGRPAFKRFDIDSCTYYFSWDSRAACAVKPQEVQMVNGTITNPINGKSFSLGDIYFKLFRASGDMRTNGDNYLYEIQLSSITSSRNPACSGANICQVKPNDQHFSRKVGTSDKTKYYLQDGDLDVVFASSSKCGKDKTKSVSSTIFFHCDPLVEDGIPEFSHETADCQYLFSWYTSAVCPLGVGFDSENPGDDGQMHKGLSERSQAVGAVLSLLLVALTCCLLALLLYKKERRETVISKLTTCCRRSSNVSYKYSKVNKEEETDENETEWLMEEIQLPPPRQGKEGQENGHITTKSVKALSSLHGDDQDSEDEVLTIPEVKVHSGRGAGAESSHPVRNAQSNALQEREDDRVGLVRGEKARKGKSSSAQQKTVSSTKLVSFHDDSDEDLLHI

Molecule	% IGF-II inhibition of uptake [2] [%]	+IGF-II Uptake (units/mg) [2] [units/mg]	Uptake (units/mg), 21 h [2] [units/mg]	% IGF-II + M6P inhibition of uptake [3] [%]	% IGF-II inhibition of uptake [3] [%]	% M6P inhibition of uptake [3] [%]	+IGF-II (units/mg), uptake with excess IGF-II [3] [units/mg]	+IGF-II + M6P (units/mg), uptake with both inhibitors [3] [units/mg]	+M6P (units/mg), uptake with 8 mM M6P [3] [units/mg]	Uptake (units/mg), 22.5 h [3] [units/mg]	also measured
CHO GUS-GILTΔ1-7 (from UniProt P08236 23-651)											% IGF-II inhibition of uptake [1]: 73%; % M6P inhibition of uptake [1]: 28%; +IGF-II (units/mg), uptake with excess IGF-II [1]: 84 units/mg; +M6P (units/mg), uptake with excess M6P [1]: 223 units/mg; Uptake (units/mg), 18 h [1]: 310 units/mg
CHO GUSΔC18-GILTΔ1-7 (from UniProt P08236 23-633)	75	1010	4080	100	70	60	473	0	639	1580	% IGF-II inhibition of uptake [1]: 63%; % M6P inhibition of uptake [1]: 41%; +IGF-II (units/mg), uptake with excess IGF-II [1]: 258 units/mg; +M6P (units/mg), uptake with excess M6P [1]: 412 units/mg; Uptake (units/mg), 18 h [1]: 704 units/mg
GILT-GUS with Δ1-7 and Y27L mutations in the IGF-II portion, Leishmania-expressed (from UniProt P08236 23-651)											cell-associated GUS activity in GM4668 fibroblasts, relative to unmodified GUS [1]: 5 fold
GUS-IGF-II fusion protein (GUS-GILT), Leishmania-expressed											cell-associated GILT-GUS in GM4668 fibroblasts, no competitor (units/mg lysate) [1]: > 24; cell-associated GILT-GUS in GM4668 fibroblasts, with about 100-fold molar excess of IGF-II [1]: 5.4 U; cell-associated GUS activity in GM4668 fibroblasts, relative to unmodified GUS [1]: 10 fold
HEK GUS-GILT (from UniProt P08236 23-651)			1430								
HEK GUS-GILTF19S (from UniProt P08236 23-651)	90.7	439	4730	99.1	86	60	217	15	952	1590	
HEK GUS-GILTF19SE12K (from UniProt P08236 23-651)	90.8	388	4230	100	98.2	31	22	0	846	1230	
HEK GUS-GILTY27L (from UniProt P08236 23-651)			1510								
HEK GUSΔC18-GILTΔ1-7 (from UniProt P08236 23-633)	77	1210	5190								
CHO GUS (enzyme, UniProt P08236 23-651, looked up) LQGGMLYPQESPSRECKELDGLWSFRADFSDNRRRGFEEQWYRRPLWESGPTVDMPVPSSFNDISQDWRLRHFVGWVWYEREVILPERWTQDLRTRVVLRIGSAHSYAIVWVNGVDTLEHEGGYLPFEADISNLVQVGPLPSRLRITIAINNTLTPTTLPPGTIQYLTDTSKYPKGYFVQNTYFDFFNYAGLQRSVLLYTTPTTYIDDITVTTSVEQDSGLVNYQISVKGSNLFKLEVRLLDAENKVVANGTGTQGQLKVPGVSLWWPYLMHERPAYLYSLEVQLTAQTSLGPVSDFYTLPVGIRTVAVTKSQFLINGKPFYFHGVNKHEDADIRGKGFDWPLLVKDFNLLRWLGANAFRTSHYPYAEEVMQMCDRYGIVVIDECPGVGLALPQFFNNVSLHHHMQVMEEVVRRDKNHPAVVMWSVANEPASHLESAGYYLKMVIAHTKSLDPSRPVTFVSNSNYAADKGAPYVDVICLNSYYSWYHDYGHLELIQLQLATQFENWYKKYQKPIIQSEYGAETIAGFHQDPPLMFTEEYQKSLLEQYHLGLDQKRRKYVVGELIWNFADFMTEQSPTRVLGNKKGIFTRQRQPKSAAFLLRERYWKIANETRYPHSVAKSQCLENSLFT											% IGF-II inhibition of uptake [4]: 5%; % M6P inhibition of uptake [4]: 99.7%; % inhibition of uptake by excess IGF-II [4]: 4.5%; +IGF-II (units/mg), uptake with excess IGF-II [4]: 336 units/mg; +M6P (units/mg), uptake with excess M6P [4]: 1 units/mg; Uptake (units/mg), 18 h [4]: 352 units/mg
